These results are taken from patent US20230365662A1.

The chains are these.
B1: KB001 mouse Fab FASEBA VH S30L (Fab, V domains shown)
VH: EVQLKQSGPGLVAPSQSLSITCTVSGFSLLIYSVHWVRQPPGKGLEWLGMIWGGGSSDYNSALKSRLSISKDNSKSQVFLKMNSLQTDDTAMYYCARNGNFYAMDYWGQGTSVTVSS
VL: QIVLTQSPAIMSASLGERVTMTCTASSSVSSSFLHWYQQKPGSSPQLWIYSTSNLASGVPARFSGSGSGTSYSLTISSMEAEDAATYYCHQYHHSPYIYTFGGGTKLEIK
B2: KB001 mouse Fab FASEBA VH S30M (Fab, V domains shown)
VH: B1 VH with L30M
VL: B1 VL
B3: KB001 mouse Fab FASEBA VH I31Q (Fab, V domains shown)
VH: B1 VH with L30S, I31Q
VL: B1 VL
B4: KB001 mouse Fab FASEBA VH H35V (Fab, V domains shown)
VH: B1 VH with L30S, H35V
VL: B1 VL
B5: KB001 mouse Fab FASEBA VH Y32N (Fab, V domains shown)
VH: B1 VH with L30S, Y32N
VL: B1 VL
B6: KB001 mouse Fab FASEBA VH S56P (Fab, V domains shown)
VH: B1 VH with L30S, S56P
VL: B1 VL
B7: KB001 mouse Fab FASEBA VH I31W (Fab, V domains shown)
VH: B1 VH with L30S, I31W
VL: B1 VL
B8: KB001 mouse Fab FASEBA VH Y32F (Fab, V domains shown)
VH: B1 VH with L30S, Y32F
VL: B1 VL
B9: KB001 mouse Fab FASEBA VH I51V (Fab, V domains shown)
VH: B1 VH with L30S, I51V
VL: B1 VL
B10: KB001 mouse Fab FASEBA VH I31E (Fab, V domains shown)
VH: B1 VH with L30S, I31E
VL: B1 VL
B11: KB001 mouse Fab FASEBA VH Y32W (Fab, V domains shown)
VH: B1 VH with L30S, Y32W
VL: B1 VL
B12: KB001 mouse Fab FASEBA VH S56E (Fab, V domains shown)
VH: B1 VH with L30S, S56E
VL: B1 VL
B13: KB001 mouse Fab FASEBA VH I31N (Fab, V domains shown)
VH: B1 VH with L30S, I31N
VL: B1 VL
B14: KB001 mouse Fab FASEBA VH G53P (Fab, V domains shown)
VH: B1 VH with L30S, G53P
VL: B1 VL
B15: KB001 mouse Fab FASEBA VH G55N (Fab, V domains shown)
VH: B1 VH with L30S, G55N
VL: B1 VL
B16: KB001 mouse Fab FASEBA VH S30W (Fab, V domains shown)
VH: B1 VH with L30W
VL: B1 VL
B17: KB001 mouse Fab FASEBA VH G53S (Fab, V domains shown)
VH: B1 VH with L30S, G53S
VL: B1 VL
B18: KB001 mouse Fab FASEBA VH S30F (Fab, V domains shown)
VH: B1 VH with L30F
VL: B1 VL
B19: KB001 mouse Fab FASEBA VH I51Q/M92I (Fab, V domains shown)
VH: B1 VH with L30S, I51Q, M92I
VL: B1 VL
B20: KB001 mouse Fab FASEBA VH G55D (Fab, V domains shown)
VH: B1 VH with L30S, G55D
VL: B1 VL
B21: KB001 mouse Fab FASEBA VH V34M (Fab, V domains shown)
VH: B1 VH with L30S, V34M
VL: B1 VL
B22: KB001 mouse Fab FASEBA VH I31L (Fab, V domains shown)
VH: B1 VH with L30S, I31L
VL: B1 VL
B23: KB001 mouse Fab FASEBA VH Y32S (Fab, V domains shown)
VH: B1 VH with L30S, Y32S
VL: B1 VL
B24: KB001 mouse Fab FASEBA VH S30H (Fab, V domains shown)
VH: B1 VH with L30H
VL: B1 VL
B25: KB001 mouse Fab FASEBA VH I31F (Fab, V domains shown)
VH: B1 VH with L30S, I31F
VL: B1 VL
B26: KB001 mouse Fab FASEBA VH I31P (Fab, V domains shown)
VH: B1 VH with L30S, I31P
VL: B1 VL
B27: KB001 mouse Fab FASEBA VH S56T (Fab, V domains shown)
VH: B1 VH with L30S, S56T
VL: B1 VL

Residue numbers refer to the chain shown, from its start. Names may count otherwise. “And” between values parts separate entries of the source, which are not always exact repeats. Equal entries are not always repeated.

The assay addresses HRgpA-6H (Porphyromonas gingivalis) (UniProt P28784). Briefly: ELISA on coated HRgpA-6H. For orientation: ELISA stands for enzyme-linked immunosorbent assay.
UniProt P28784, sequence (P28784 228-991 limits assumed): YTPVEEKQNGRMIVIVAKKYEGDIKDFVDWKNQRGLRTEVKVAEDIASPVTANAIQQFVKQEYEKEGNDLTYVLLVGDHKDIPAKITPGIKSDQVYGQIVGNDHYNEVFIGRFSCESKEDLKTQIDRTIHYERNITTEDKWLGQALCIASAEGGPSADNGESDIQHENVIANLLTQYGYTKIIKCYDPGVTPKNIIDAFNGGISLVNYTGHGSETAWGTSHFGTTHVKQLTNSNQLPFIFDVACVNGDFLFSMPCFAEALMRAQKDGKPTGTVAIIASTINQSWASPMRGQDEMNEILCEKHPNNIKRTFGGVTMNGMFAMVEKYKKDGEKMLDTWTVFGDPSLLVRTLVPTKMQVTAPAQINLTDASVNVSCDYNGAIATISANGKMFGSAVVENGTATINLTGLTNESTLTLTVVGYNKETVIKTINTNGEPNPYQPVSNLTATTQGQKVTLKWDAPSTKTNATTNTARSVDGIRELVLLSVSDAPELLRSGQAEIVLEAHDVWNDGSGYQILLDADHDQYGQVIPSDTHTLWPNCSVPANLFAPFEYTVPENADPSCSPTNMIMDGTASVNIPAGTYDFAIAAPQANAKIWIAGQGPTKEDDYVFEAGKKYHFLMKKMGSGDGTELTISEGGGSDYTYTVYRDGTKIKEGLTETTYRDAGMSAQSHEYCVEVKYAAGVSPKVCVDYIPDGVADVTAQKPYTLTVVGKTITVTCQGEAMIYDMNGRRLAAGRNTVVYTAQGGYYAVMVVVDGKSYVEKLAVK
Regarding B1, the OD450nm was found to be 0.468 and the Ratio OD(Variant)/OD(WT) was determined as 0.928.
As to B2, the OD450nm is 0.437 and the Ratio OD(Variant)/OD(WT) amounted to 0.866.
For the molecule B3, the OD450nm is 0.44 and 0.439; the Ratio OD(Variant)/OD(WT) was 0.872 and 0.87.
For the molecule B4, the OD450nm worked out at 0.706 and the Ratio OD(Variant)/OD(WT) came to 0.856.
B5: the OD450nm is 0.826 and 0.775; the Ratio OD(Variant)/OD(WT) is 0.976 and 0.916.
B6: the OD450nm is 0.855 and 0.788 and 0.824; the Ratio OD(Variant)/OD(WT) is 0.972 and 0.896 and 0.937.
Regarding B7, the OD450nm was determined as 0.459 and the Ratio OD(Variant)/OD(WT) stood at 0.91.
Consider B8, for which the OD450nm is 0.814 and 0.807; the Ratio OD(Variant)/OD(WT) is 0.962 and 0.953.
Turning to B9, the OD450nm is 0.798 and the Ratio OD(Variant)/OD(WT) worked out at 0.903.
On to B10, for which the OD450nm is 0.42 and 0.458 and 0.428; the Ratio OD(Variant)/OD(WT) is 0.833 and 0.908 and 0.848.
With B11, the OD450nm was 0.731 and 0.718 and 0.747; the Ratio OD(Variant)/OD(WT) is 0.864 and 0.848 and 0.882.
Consider B12, for which the OD450nm is 0.772 and 0.713; the Ratio OD(Variant)/OD(WT) was 0.878 and 0.811.
As to B13, the OD450nm worked out at 0.429 and the Ratio OD(Variant)/OD(WT) came to 0.85.
On to B14, for which the OD450nm is 0.754 and 0.716; the Ratio OD(Variant)/OD(WT) is 0.947 and 0.899.
Take B15: the OD450nm was 0.652 and the Ratio OD(Variant)/OD(WT) turned out to be 0.81.
The corresponding values for B16 are 0.469 and 0.93.
As for B17, the OD450nm was 0.686 and the Ratio OD(Variant)/OD(WT) amounted to 0.861.
For the molecule B18, the OD450nm was 0.438 and the Ratio OD(Variant)/OD(WT) is 0.868.
The corresponding values for B19 are 0.722 and 0.817.
The corresponding values for B20 are 0.697 and 0.866.
B21: the OD450nm is 0.793 and 0.791; the Ratio OD(Variant)/OD(WT) was 0.962 and 0.959.
In the case of B22, the OD450nm was 0.442 and 0.431; the Ratio OD(Variant)/OD(WT) is 0.876 and 0.854.
B23: the OD450nm is 0.717 and 0.783 and 0.718; the Ratio OD(Variant)/OD(WT) was 0.847 and 0.925 and 0.848.
As to B24, the OD450nm was determined as 0.482 and the Ratio OD(Variant)/OD(WT) worked out at 0.955.
For B25, the OD450nm came out at 0.45 and the Ratio OD(Variant)/OD(WT) amounted to 0.892.
Regarding B26, the OD450nm was 0.471 and 0.428; the Ratio OD(Variant)/OD(WT) was 0.934 and 0.848.
Turning to B27, the OD450nm was 0.838 and 0.844 and 0.853; the Ratio OD(Variant)/OD(WT) is 0.953 and 0.96 and 0.97.
